Source: IntAct's records for PubMed 19955427

B1: Serine/threonine-protein kinase SRK2E (Arabidopsis thaliana (Mouse-ear cress)), Q940H6 (parent)
chain: MDRPAVSGPMDLPIMHDSDRYELVKDIGSGNFGVARLMRDKQSNELVAVKYIERGEKIDENVKREIINHRSLRHPNIVRFKEVILTPTHLAIVMEYASGGELFERICNAGRFSEDEARFFFQQLISGVSYCHAMQVCHRDLKLENTLLDGSPAPRLKICDFGYSKSSVLHSQPKSTVGTPAYIAPEVLLKKEYDGKVADVWSCGVTLYVMLVGAYPFEDPEEPKNFRKTIHRILNVQYAIPDYVHISPECRHLISRIFVADPAKRISIPEIRNHEWFLKNLPADLMNDNTMTTQFDESDQPGQSIEEIMQIIAEATVPPAGTQNLNHYLTGSLDIDDDMEEDLESDLDDLDIDSSGEIVYAM
partner: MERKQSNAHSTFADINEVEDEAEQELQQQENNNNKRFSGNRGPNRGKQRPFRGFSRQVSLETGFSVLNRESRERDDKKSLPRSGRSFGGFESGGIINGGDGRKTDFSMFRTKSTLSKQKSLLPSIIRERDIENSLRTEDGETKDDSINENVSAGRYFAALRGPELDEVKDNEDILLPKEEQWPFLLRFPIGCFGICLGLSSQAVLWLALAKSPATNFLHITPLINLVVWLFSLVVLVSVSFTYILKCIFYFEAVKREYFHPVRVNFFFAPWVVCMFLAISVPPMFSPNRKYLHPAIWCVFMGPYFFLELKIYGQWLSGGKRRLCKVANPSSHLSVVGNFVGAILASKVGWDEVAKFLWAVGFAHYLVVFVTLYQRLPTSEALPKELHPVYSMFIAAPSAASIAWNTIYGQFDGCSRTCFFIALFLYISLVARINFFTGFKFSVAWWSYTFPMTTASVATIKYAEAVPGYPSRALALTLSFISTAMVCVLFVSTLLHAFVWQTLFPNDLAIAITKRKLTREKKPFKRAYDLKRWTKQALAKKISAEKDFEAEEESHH
B2: Protein phosphatase 2C 37 (Arabidopsis thaliana (Mouse-ear cress)), P49598 (parent)
chain: MAGICCGVVGETEPAAPVDSTSRASLRRRLDLLPSIKIVADSAVAPPLENCRKRQKRETVVLSTLPGNLDLDSNVRSENKKARSAVTNSNSVTEAESFFSDVPKIGTTSVCGRRRDMEDAVSIHPSFLQRNSENHHFYGVFDGHGCSHVAEKCRERLHDIVKKEVEVMASDEWTETMVKSFQKMDKEVSQRECNLVVNGATRSMKNSCRCELQSPQCDAVGSTAVVSVVTPEKIIVSNCGDSRAVLCRNGVAIPLSVDHKPDRPDELIRIQQAGGRVIYWDGARVLGVLAMSRAIGDNYLKPYVIPDPEVTVTDRTDEDECLILASDGLWDVVPNETACGVARMCLRGAGAGDDSDAAHNACSDAALLLTKLALARQSSDNVSVVVVDLRKRRNNQASS
partner: B1 chain

Variants of: B1
Conditions: with slac1_arath SLAC1, Q9LD83
For MDRPAVSGPMDLPIMHDSDRYELVKDIGSGNFGVARLMRDKQSNELVAVNYIERGEKIDENVKREIINHRSLRHPNIVRFKEVILTPTHLAIVMEYASGGELFERICNAGRFSEDEARFFFQQLISGVSYCHAMQVCHRDLKLENTLLDGSPAPRLKICDFGYSKSSVLHSQPKSTVGTPAYIAPEVLLKKEYDGKVADVWSCGVTLYVMLVGAYPFEDPEEPKNFRKTIHRILNVQYAIPDYVHISPECRHLISRIFVADPAKRISIPEIRNHEWFLKNLPADLMNDNTMTTQFDESDQPGQSIEEIMQIIAEATVPPAGTQNLNHYLTGSLDIDDDMEEDLESDLDDLDIDSSGEIVYAM [K50N], the “effect of a mutation on the interaction” value was “disrupting interaction”.

Variants of: B2
Conditions: with srk2e_arath SRK2E
MAGICCGVVGETEPAAPVDSTSRASLRRRLDLLPSIKIVADSAVAPPLENCRKRQKRETVVLSTLPGNLDLDSNVRSENKKARSAVTNSNSVTEAESFFSDVPKIGTTSVCGRRRDMEDAVSIHPSFLQRNSENHHFYDVFDGHDCSHVAEKCRERLHDIVKKEVEVMASDEWTETMVKSFQKMDKEVSQRECNLVVNGATRSMKNSCRCELQSPQCDAVGSTAVVSVVTPEKIIVSNCGDSRAVLCRNGVAIPLSVDHKPDRPDELIRIQQAGGRVIYWDGARVLGVLAMSRAIGDNYLKPYVIPDPEVTVTDRTDEDECLILASDGLWDVVPNETACGVARMCLRGAGAGDDSDAAHNACSDAALLLTKLALARQSSDNVSVVVVDLRKRRNNQASS [G139D;G145D] was tested, and the “effect of a mutation on the interaction” value was “disrupting interaction”.
